Results as given in patent US20110183358A1 (published 2011).
One block for each molecule: values may come before it. Square brackets hold non-standard residues; d marks the D form. Ends that are not written are not given here. * marks the point of attachment. Phe(4-Cl) = N[C@@H](Cc1ccc(Cl)cc1)C(=O)O; 2Nal = N[C@@H](Cc1ccc2ccccc2c1)C(=O)O; d2Nal = N[C@H](Cc1ccc2ccccc2c1)C(=O)O; Fmoc = O=C(OCC1c2ccccc2-c2ccccc21)*; 2Thi = N[C@@H](Cc1cccs1)C(=O)O; Cha = N[C@@H](CC1CCCCC1)C(=O)O; d2Thi = N[C@H](Cc1cccs1)C(=O)O; dCha = N[C@H](CC1CCCCC1)C(=O)O

Key:
[1] = target: glutathione-S-transferase-BIR2 fusion protein (GST-BIR2) (human) (UniProt P98170); test: fluorescence polarization; 400 nM rhodamine-SMAC, GST-BIR2 0.05 to 20 µM
Chain of glutathione-S-transferase-BIR2 fusion protein (GST-BIR2) (human) (P98170 124-240): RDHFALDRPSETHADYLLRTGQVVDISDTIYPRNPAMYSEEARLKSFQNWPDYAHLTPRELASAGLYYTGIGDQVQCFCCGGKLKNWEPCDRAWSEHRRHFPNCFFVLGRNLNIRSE

GST-BIR3RING (human) = GST-BIR3RING (human) (UniProt P98170); test: fluorescence polarization; 400 nM rhodamine-SMAC, GST-BIR3RING 0.02 to 6 µM
Chain of GST-BIR3RING (human) (P98170 243-497): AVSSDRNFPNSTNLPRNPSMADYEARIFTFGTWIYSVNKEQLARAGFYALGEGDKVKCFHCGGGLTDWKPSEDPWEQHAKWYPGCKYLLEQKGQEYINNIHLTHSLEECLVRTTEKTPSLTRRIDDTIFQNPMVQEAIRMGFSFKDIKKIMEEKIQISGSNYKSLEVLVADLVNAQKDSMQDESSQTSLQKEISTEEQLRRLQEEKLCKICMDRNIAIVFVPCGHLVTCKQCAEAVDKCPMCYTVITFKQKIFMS

GST-XIAP [2] = target: T1, GST-XIAP (human, UniProt P98170 1-497); test: cell-based or functional assay
T1 sequence (P98170 whole entry): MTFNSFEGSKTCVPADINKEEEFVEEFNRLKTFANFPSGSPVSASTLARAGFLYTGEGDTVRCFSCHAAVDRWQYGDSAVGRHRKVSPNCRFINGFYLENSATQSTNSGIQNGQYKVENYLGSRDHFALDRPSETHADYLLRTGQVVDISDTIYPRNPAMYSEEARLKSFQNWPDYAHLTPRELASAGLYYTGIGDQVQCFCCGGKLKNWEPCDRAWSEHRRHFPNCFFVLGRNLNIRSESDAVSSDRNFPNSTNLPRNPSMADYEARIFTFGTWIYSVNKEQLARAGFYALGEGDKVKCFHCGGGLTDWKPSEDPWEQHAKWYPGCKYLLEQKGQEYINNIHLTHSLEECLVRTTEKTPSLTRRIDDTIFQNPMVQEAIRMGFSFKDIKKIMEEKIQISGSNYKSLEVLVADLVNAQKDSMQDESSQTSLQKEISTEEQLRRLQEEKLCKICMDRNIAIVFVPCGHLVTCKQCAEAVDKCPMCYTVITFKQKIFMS

full length XIAP = full length XIAP (human, UniProt P98170 1-497); test: cell-based or functional assay
Chain of full length XIAP (P98170 whole entry): as above

GST-XIAP [3] = target: T1, GST-XIAP; test: cell-based or functional assay; remark: listed apart in the source

Kd [1]: 20 µM
Kd (GST-BIR3RING (human)): 0.28 µM
Molecule: rhodamine labeled SMAC (rhodamine-SMAC) (peptide)

EC50 (amount of compound necessary to restore caspase-3 activity to 50% of Vmax) (full length XIAP): 24 µM
Relative Potency (against SMAC AVPI tetrapeptide) (full length XIAP): 5.2 fold
Molecule: [2Thi][2Nal][Phe(4-Cl)]K(Fmoc) [TPI 792-33]

EC50 (amount of compound necessary to restore caspase-3 activity to 50% of Vmax) (full length XIAP): 51 µM
Relative Potency (against SMAC AVPI tetrapeptide) (full length XIAP): 2.5 fold
Molecule: [2Thi][2Nal][dK](Fmoc)K(Fmoc) [TPI 792-35]

Vmax(mix + casp3 + XIAP)/Vmax(casp3 + XIAP) (GST-XIAP [3]): 3.8 ratio
Molecule: H-AVPIAQK-NH2 [SMAC peptide (H-Ala-Val-Pro-Ile-Ala-Gln-Lys-NH2)]

ratio of Vmax for hydrolysis of Ac-DEVD-AFC in the presence and absence of the species (GST-XIAP [2]): 2.4 ratio
Molecule: [2Nal][d2Thi][dF][dW] [1352-72]

More lines, now with the values behind:

Molecule: [2Nal][dCha]W[dW] [1352-66]
ratio of Vmax for hydrolysis of Ac-DEVD-AFC in the presence and absence of the species (GST-XIAP [2]): 2.4 ratio

Molecule: AWW[2Thi] (not fully specified) [1332/1352-1]
ratio of Vmax for hydrolysis of Ac-DEVD-AFC in the presence and absence of the species (GST-XIAP [2]): 2.4 ratio

Molecule: A[dW]W[2Thi] [1332/1352-47]
ratio of Vmax for hydrolysis of Ac-DEVD-AFC in the presence and absence of the species (GST-XIAP [2]): 2.4 ratio

Molecule: A[dW]W[2Thi] [1352-6]
ratio of Vmax for hydrolysis of Ac-DEVD-AFC in the presence and absence of the species (GST-XIAP [2]): 2.4 ratio

Molecule: [Cha][d2Nal]W[2Thi] [1332-41]
ratio of Vmax for hydrolysis of Ac-DEVD-AFC in the presence and absence of the species (GST-XIAP [2]): 2.4 ratio
